The results in this text go back to patent publication US20180193475A1 (Novartis, published 2018).

Positions count from the first letter of the chain named.

First the molecules themselves.
B1: NEG026 (antibody, human IgG1, kappa, V domains shown)
VH: EVQLVESGGGLVQPGGSLRLSCAASGFTFSDYYMAWVRQAPGKGLEWVANINQNTGSTYYVDSVQGRFTISRDNAKNSLYLQMNSLRAEDTAVYYCARGDYYGTTYWYFDVWGQGTTVTVSS
VL: EIVMTQSPATLSLSPGERATLSCRASQDISNYLNWYQQKPGQAPRLLIYYTSRLQSGIPARFSGSGSGTDYTLTISSLEPEDFAVYYCQQGKKLWSFGGGTKVEIKR
notes: Humanized, optimized variant of 9P3; human IgG1 kappa
B2: 20376 (antibody, human IgG1, lambda, V domains shown)
VH: QVQLVQSGAEVKKPGSSVKVSCKASGGTFSSYAISWVRQAPGQGLEWMGGIIPMSGRTTYAQKFQGRVTITADESTSTAYMELSSLRSEDTAVYYCARDYGPEAPDYGQSTSYFWYYAFDPWGQGTLVTVSS
VL: DIELTQPPSVSVSPGQTASITCSGDNIPSYFVHWYQQKPGQAPVLVIYDDNDRPSGIPERFSGSNSGNTATLTISGTQAEDEADYYCSSWDQDTVVFGGGTKLTVLG
B3: 20507 (antibody, human IgG1, kappa, V domains shown)
VH: QVQLVQSGAEVKKPGSSVKVSCKASGGTFSSYAISWVRQAPGQGLEWMGTIGPFEGQPRYAQKFQGRVTITADESTSTAYMELSSLRSEDTAVYYCARGGYISDFDVWGQGTLVTVSS
VL: DIQMTQSPSSLSASVGDRVTITCRASQSISNYLAWYQQKPGKAPKLLIYDASSLQSGVPSRFSGSGSGTDFTLTISSLQPEDFATYYCQQYYYESITFGQGTKVEIKR
notes: HuCAL-derived human IgG1 kappa
B4: NEG086 (antibody, human IgG1, kappa, V domains shown)
VH: B1 VH with N54I, T55A
VL: DIQMTQSPSSLSASVGDRVTITCRASQSISSYLNWYQQKPGKAPKLLIYYTSRLQSGVPSRFSGSGSGTDFTLTISSLQPEDFATYYCQQGRRLWSFGGGTKVEIKR
notes: as for B1
B5: NEG087 (antibody, human IgG1, kappa, V domains shown)
VH: B1 VH with N50S, V61L, Q65R
VL: B4 VL
notes: as for B1
B6: NEG085 (antibody, human IgG1, kappa, V domains shown)
VH: B1 VH with T28A, D31G, Q53Y, N54P, T55G, G56S, V61L, Q65K
VL: B4 VL
B7: NEG024 (antibody, human IgG1, kappa, V domains shown)
VH: B1 VH with N54I, T55A, V61L, Q65R
VL: B1 VL
notes: as for B1
B8: anti-cKIT antibody 9P3 (antibody, V domains shown)
VH: EVRLVESEGGLVQPRSSMKLSCTASGFTFSDYYMAWVRQVPEKGLEWVANINYDGSSTYYLDSLKSRFIISRDNAKNILYLQMSSLKSEDTATYYCARGDYYGTTYWYFDVWGTGTTVTVSS
VL: DIQMTQTTSSLSASLGDRVTISCRASQDISNYLNWYQQKPDGTVKLLIYYTSRLQSGVPSRFSGSGSGTDYSLTISNLEQEDIATYFCQQGKKLWSFGGGTKLEIKR
notes: Hybridoma-derived mouse variable domains
B9: NEG027 (antibody, human IgG1, kappa, V domains shown)
VH: B1 VH with N50S, V61L, Q65R
VL: B1 VL
notes: as for B1

In the first experiment the target is T1, Human cKIT D1-3 (ECD subdomains 1-3, ligand binding domain) (human, UniProt P10721 26-311).
T1 construct: also called cKIT subdomains 1-3
T1 sequence (P10721 other isoform, or with tags, fused parts or gaps limits assumed): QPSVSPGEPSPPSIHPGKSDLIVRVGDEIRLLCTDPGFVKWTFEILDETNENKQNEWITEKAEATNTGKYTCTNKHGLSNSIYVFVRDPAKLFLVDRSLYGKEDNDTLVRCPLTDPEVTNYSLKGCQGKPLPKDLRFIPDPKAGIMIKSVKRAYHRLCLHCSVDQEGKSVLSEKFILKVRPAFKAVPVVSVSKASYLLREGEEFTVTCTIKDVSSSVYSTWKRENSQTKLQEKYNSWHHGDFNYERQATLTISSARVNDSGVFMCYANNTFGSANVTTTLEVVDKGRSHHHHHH
Description: ELISA on coated cKIT ECD subdomains.
As for B1, the binding result is reported as “binds”.

The target of another experiment is T2, Mouse cKIT ECD, C-terminal 6x His (Sino Biological Inc, catalog number 50530-M08H) (mouse, UniProt P05532 25-527).
T2 construct: extracellular domain; Bought protein; not shown: C-terminal 6x His tag
T2 sequence (looked up): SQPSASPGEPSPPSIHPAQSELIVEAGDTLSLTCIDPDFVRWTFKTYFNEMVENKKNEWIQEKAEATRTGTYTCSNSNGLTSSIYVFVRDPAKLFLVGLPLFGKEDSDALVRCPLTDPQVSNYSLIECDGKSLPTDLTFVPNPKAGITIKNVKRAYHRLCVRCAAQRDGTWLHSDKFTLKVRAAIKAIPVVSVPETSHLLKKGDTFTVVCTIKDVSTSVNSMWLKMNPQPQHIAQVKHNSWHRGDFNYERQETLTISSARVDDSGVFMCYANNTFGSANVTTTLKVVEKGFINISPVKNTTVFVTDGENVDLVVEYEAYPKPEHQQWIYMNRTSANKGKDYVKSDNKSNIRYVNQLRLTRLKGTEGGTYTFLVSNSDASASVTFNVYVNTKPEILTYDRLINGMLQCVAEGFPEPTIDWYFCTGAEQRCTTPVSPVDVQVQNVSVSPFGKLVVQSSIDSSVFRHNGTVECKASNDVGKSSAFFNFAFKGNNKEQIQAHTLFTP
Description: SPR (Biacore 2000): antibody captured by anti-human Fc on CM5, cKIT ECD in solution, 25 C, 1:1 fit. As for the experimental part:
(§1) Affinity of the antibodies to cKIT species orthologues and also to cKIT was determined using SPR technology using a Biacore® 2000 instrument (GE Healthcare, Pittsburgh, Pa.) and with CM5 sensor chips.
(§2) Briefly, HBS-P (0.01 M HEPES, pH 7.4, 0.15 M NaCl, 0.005% Surfactant P20) supplemented with 2% Odyssey® blocking buffer (Li-Cor Biosciences, Lincoln, Nebr.) was used as the running buffer for all the experiments. The immobilization level and analyte interactions were measured by response unit (RU).
(§3) For kinetic measurements, the experiments were performed in which the antibodies were captured to the sensor chip surface via the immobilized anti-human Fc antibody and the ability of the cKIT proteins to bind in free solution was determined. […] 0.1-1 μg/ml of test antibodies were then injected at 10 μl/min for 1 minute. […] Subsequently, 3.125-50 nM of cKIT receptor extracellular domains (ECD) were diluted in a 2-fold series and injected at a flow rate of 40 μl/min for 3 min over both reference and test flow cells. Table of tested ECDs is listed below (Table 6). Dissociation of the binding was followed for 10 min. After each injection cycle, the chip surface was regenerated with 3 M MgCl₂ at 10 μl/min for 30 seconds.
On the technique in general: Surface plasmon resonance follows binding to a sensor surface in real time, without labels.
A word on the Kd: it is the constant that tells how readily two partners part at equilibrium. B2 gave a Kd of 2.5 nM.

A further experiment addresses T3, Cynomolgus monkey cKIT D1-5 (cyno cKIT ECD, C-terminal 6x His) (cynomolgus monkey, UniProt P10721 25-520 (human entry)).
T3 construct: The signal peptide is not part of the protein in the assay; The entry includes the C-terminal His tag; also called cynomolgus monkey ECD
T3 chain: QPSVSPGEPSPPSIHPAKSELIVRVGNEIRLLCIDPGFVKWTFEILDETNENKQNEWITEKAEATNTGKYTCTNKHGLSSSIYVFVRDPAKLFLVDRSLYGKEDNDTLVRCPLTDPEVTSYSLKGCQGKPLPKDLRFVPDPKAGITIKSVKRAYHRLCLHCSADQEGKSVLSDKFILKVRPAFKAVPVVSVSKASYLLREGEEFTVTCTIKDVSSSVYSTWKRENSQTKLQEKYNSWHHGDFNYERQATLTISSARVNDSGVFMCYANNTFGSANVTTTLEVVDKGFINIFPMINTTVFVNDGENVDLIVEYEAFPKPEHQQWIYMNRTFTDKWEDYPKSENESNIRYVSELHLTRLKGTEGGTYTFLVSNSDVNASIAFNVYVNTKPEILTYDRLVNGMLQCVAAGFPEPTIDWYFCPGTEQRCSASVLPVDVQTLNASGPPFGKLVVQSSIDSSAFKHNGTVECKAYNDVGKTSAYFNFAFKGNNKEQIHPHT
Described as above. Here is the method:
as §1, §2, §3
For B3, the Kd was 0.56 nM.

As to B2, the affinity, expressed as Kd, was 4.8 nM.

B4: binding was put at a Kd of 1.34 nM.

As for B5, the Kd came out at 1.39 nM.

Molecule B6 registered a Kd of 6.14 nM.

B7 registered a Kd of 1.15 nM.

In another experiment the target is T4, Human cKIT D1-5 (human cKIT ECD, C-terminal 6x His) (human, UniProt P10721 26-524).
T4 construct: also called human cKIT-His
T4 sequence (P10721 other isoform, or with tags, fused parts or gaps limits assumed): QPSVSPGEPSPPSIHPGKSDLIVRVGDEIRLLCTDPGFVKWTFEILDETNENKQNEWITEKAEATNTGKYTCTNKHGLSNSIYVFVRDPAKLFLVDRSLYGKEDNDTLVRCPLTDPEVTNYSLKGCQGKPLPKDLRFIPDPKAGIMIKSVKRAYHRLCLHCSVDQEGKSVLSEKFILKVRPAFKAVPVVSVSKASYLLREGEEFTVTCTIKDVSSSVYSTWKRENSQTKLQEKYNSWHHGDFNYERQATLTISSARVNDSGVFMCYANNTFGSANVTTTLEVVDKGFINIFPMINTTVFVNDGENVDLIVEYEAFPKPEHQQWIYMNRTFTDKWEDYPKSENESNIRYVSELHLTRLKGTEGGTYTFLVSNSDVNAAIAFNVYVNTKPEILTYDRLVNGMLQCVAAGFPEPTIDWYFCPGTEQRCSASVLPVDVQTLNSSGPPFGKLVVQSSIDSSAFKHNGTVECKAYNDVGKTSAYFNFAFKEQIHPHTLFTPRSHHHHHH
The experiment is described as above. As for the experimental part:
as §1, §2, §3
The molecule B8 came in with a Kd of 20 nM.

In the case of B2, binding was characterised by a dissociation constant (Kd) of 9.1 nM.

For B4, the Kd is 1.44 nM.

As to B9, the Kd was determined as 1.34 nM.

Consider B5, for which the Kd worked out at 1.13 nM.

In turn, B6 gave a Kd of 8.4 nM.

Molecule B7 gave a Kd of 1.31 nM.

A further experiment addresses T2, Mouse cKIT ECD, C-terminal 6x His (Sino …). Description: SPR (Biacore 2000): antibody captured by anti-human Fc, cKIT ECD in solution. As for the experimental part:
as §1, §2, §3
For B3, the binding result is given as “no binding (tested: 3.125-50 nM ECD injected)”.

With B8, the binding result is recorded as “no binding (tested: 3.125-50 nM ECD injected)”.

For B4, the binding result is “no binding (tested: 3.125-50 nM ECD injected)”.

Consider B9, for which the binding result was “no binding (tested: 3.125-50 nM ECD injected)”.

Regarding B5, the binding result is listed as “no binding (tested: 3.125-50 nM ECD injected)”.

Regarding B6, the binding result is “no binding (tested: 3.125-50 nM ECD injected)”.

On to B1, for which the binding result is reported as “no binding (tested: 3.125-50 nM ECD injected)”.

Turning to B7, the binding result was “no binding (tested: 3.125-50 nM ECD injected)”.

A further experiment deals with T5, Rat cKIT D1-5, C-terminal mFc (rat).
T5 construct: The whole entry is rat cKIT ECD residues 25-526, a linker and a mouse Fc tag; also called rat cKIT-mFc
T5 chain: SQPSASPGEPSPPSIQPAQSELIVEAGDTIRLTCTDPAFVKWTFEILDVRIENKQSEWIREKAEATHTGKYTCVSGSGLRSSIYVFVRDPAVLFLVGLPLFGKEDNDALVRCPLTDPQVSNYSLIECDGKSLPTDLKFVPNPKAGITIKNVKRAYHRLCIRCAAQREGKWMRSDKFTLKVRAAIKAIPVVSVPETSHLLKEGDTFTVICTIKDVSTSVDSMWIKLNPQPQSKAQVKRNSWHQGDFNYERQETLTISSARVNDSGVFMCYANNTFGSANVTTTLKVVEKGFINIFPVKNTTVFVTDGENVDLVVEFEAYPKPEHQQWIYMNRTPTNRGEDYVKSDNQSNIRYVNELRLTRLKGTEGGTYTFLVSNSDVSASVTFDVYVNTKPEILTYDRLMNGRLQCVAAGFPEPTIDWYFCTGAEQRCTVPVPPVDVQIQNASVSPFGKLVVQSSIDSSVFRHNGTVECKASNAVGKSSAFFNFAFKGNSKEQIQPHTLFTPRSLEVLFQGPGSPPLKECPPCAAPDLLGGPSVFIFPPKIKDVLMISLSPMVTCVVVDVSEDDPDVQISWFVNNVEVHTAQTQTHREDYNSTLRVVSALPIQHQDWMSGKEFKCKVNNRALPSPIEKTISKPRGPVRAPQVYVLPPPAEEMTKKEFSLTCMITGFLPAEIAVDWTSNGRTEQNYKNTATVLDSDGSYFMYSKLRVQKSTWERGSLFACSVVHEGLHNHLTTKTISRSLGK
The experiment is described as above. As for the experimental part: as §1, §2, §3
Take B3: the binding result was “no binding (tested: 3.125-50 nM ECD injected)”.

B8: the binding result was “no binding (tested: 3.125-50 nM ECD injected)”.

Take B2: the binding result is on record as “no binding (tested: 3.125-50 nM ECD injected)”.

On to B4, for which the binding result is reported as “no binding (tested: 3.125-50 nM ECD injected)”.

In the case of B9, the binding result was “no binding (tested: 3.125-50 nM ECD injected)”.

As to B5, the binding result was “no binding (tested: 3.125-50 nM ECD injected)”.

As to B6, the binding result is recorded as “no binding (tested: 3.125-50 nM ECD injected)”.

As for B1, the binding result is “no binding (tested: 3.125-50 nM ECD injected)”.

Turning to B7, the binding result is on record as “no binding (tested: 3.125-50 nM ECD injected)”.
